The text below walks through data of US7959916B2, “Negative immunomodulation of immune responses by ERp5” (Fred Hutchinson Cancer Research Center, priority 2007, dated 2011).

Assay [1] concerns surface expression of MICA. The experiment in a line: MICA surface expression on tumor cell lines (flow cytometry). The note with it: tumor lines exposed to DTNB or PAO at titered non-toxic concentrations.
The subject of assay [2] is sMICA shedding by Hela and A375 cells. The experiment in a line: sMICA shedding by tumor cell lines (ELISA for sMICA). A general note: In an ELISA, binding on a coated surface is turned into a signal by an enzyme label.
Assay [3] deals with T1, MICA (Homo sapiens, UniProt Q29983).
T1 sequence (Q29983 24-299): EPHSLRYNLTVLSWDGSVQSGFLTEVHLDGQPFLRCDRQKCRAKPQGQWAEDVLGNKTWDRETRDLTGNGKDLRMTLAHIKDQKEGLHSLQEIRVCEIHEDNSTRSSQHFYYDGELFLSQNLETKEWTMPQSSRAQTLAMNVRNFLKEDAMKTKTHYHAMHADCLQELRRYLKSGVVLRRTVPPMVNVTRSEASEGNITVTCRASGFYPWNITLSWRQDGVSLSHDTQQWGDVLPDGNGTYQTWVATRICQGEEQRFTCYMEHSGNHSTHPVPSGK
The experiment in a line: ERp5 activity assay on MICA substrates (non-reducing SDS-PAGE). The assay is classed as biochemical. Particulars: ectodomain MICA, RT, no reducing agents.

For assay [4], the target named is T2, MICA (Homo sapiens, UniProt Q29983).
T2 sequence (Q29983 24-203): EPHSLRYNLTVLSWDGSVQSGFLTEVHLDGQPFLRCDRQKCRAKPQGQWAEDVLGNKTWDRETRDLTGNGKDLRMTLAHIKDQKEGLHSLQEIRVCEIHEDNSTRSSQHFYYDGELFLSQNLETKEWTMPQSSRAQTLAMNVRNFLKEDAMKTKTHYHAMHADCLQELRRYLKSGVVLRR
Described as above. Format: biochemical. The note with it: isolated α1α2 platform (residues 1-180).

Assay [5] relates to Siderocalin and CD94-NKG2A. The experiment in a line: ERp5 activity assay on control proteins. Format: biochemical. Particulars: Siderocalin (intrachain) and CD94-NKG2A (intrachain and interchain) disulfide bonds.
Assay [6] concerns the target T3, MICA (Homo sapiens, UniProt Q29983).
T3 sequence (Q29983 210-297): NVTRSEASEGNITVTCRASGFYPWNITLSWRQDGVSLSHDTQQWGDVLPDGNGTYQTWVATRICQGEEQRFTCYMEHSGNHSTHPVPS
The experiment in a line: ERp5 activity assay on MICA substrates (non-reducing SDS-PAGE). Particulars: isolated α3 domain (residues 187-274). Format: biochemical.

In a further assay the test system is ERp5-MICA complexes. The experiment in a line: Capturing of ERp5-MICA complexes by co-immunoprecipitation from TCA-treated Hela cells. Format: cell-based. Particulars: Hela cells grown 16 h with increasing concentrations. The text has this:
Immunoprecipitations and sMICA cleavage.

For assay [7], the system named is PHA (or anti-CD3)-activated CD4 T cells. Description: Cytokine production by activated CD4 T cells (17 multiplex cytokine analysis). Particulars: soluble MICA 10 ng/ml, 24 hour supernatants. The assay is classed as cell-based. The method, then: Total PBMC from healthy donors were cultured for 48 hours with PHA (1 μg/ml) or on solid-phase anti-CD3 (25 ng/ml) and stained for standard three-color flow cytometry using combinations of directly conjugated anti-CD3, -CD4 and -CD8 mAbs followed by anti-ERp5 and PE-goat anti-rabbit Ig. For cytokine analyses, bulk NKG2D^+ and NKG2D^− T cell populations purified by magnetic sorting were plated on solid-phase monoclonal antibodies with or without soluble MICA (10 ng/ml). 24 hour culture supernatants were screened by 17 multiplex cytokine analysis.

Assay [8] relates to monocyte derived dendritic cells (mDC). Description: Maturation marker expression on monocyte-derived dendritic cells (flow cytometry). Format: cell-based. Particulars: mDC matured with cytokine cocktail, soluble MICA 10 ng/ml. As to the method:
Monocytes were enriched from normal peripheral blood mononuclear cells (PBMC) by plastic adherence and cultured under standard conditions in the presence of IL-4 and GM-CSF. Cells were harvested at 6 hour-intervals and stained with fluorescein isothiocyanate (FITC)-anti-CD83 or FITC-HLA-DR followed by saturating phycoerythrin (PE)-MICA tetramer concentrations or polyclonal rabbit anti-ERp5 and PE-goat anti-rabbit Ig. On day 6 of culture with IL-4/GM-CSF, mDC were matured (IL-1β, IL-6, TNFα, and PGE2) and MICA tetramer staining and Erp5 expression monitored for an additional 3 days. MICA tetramer was produced by ectodomain MICA protein expression in transfected 293T cells, protein purification from culture supernatant using Invitrogen technology, and BirA enzymatic biotinylation and conjugation with PE-streptavidin.
mDC were matured using standard cytokine cocktail (Il-1β, IL-6, TNFα, and PGE2) in the additional presence or absence of soluble MICA (10 ng/ml). Mature mDC were harvested after 24 to 48 hours and processed for standard flow cytometry of CD80 and CD83 expression. […] IL-6 contents in culture supernatants were measured by standard ELISA. […] After 72 hours, cells in wells were labeled with [^3H]thymidine for 24 hours and harvested for counting of incorporated radioactivity.
A general note: In flow cytometry, cells or beads pass a laser one at a time.

Assay [9] has as its system mDC and allogeneic T cells. Description: Mixed-lymphocyte reaction, alloantigen presentation by mDC ([3H]thymidine incorporation). Particulars: MLR, soluble MICA 10 ng/ml, 72 h. Format: cell-based. As to the method:
mDC were matured using standard cytokine cocktail (Il-1β, IL-6, TNFα, and PGE2) in the additional presence or absence of soluble MICA (10 ng/ml). Mature mDC were harvested after 24 to 48 hours and processed for standard flow cytometry of CD80 and CD83 expression. For IL-6 secretion assays, 24 hour cytokine-matured mDC were washed, mixed with irradiated C1R-Neo (control), C1R-MICA or C1R-ULBP1 cells at a ratio of 2:1 and plated at 50,000 (experiment 1 and 2) or 200,000 mDC (experiment 3 and 4) per round-bottom 96-well in 200 μl AIM-V media with LPS (10 μg/ml). IL-6 contents in culture supernatants were measured by standard ELISA. The ability of mature mDC to present alloantigen in the presence or absence of soluble MICA was studied using standard mixed-lymphocyte reaction (MLR). Irradiated (3000 Rad) cytokine-matured mDC and allogeneic T cells were plated at various ratios (X-axis of bottom bar graph) with or without soluble MICA (10 ng/ml AIM-V) in round-bottom 96-well plates. After 72 hours, cells in wells were labeled with [^3H]thymidine for 24 hours and harvested for counting of incorporated radioactivity.

A further assay addresses T4, ERp5 (Homo sapiens, UniProt Q15084).
T4 sequence (Q15084 20-440): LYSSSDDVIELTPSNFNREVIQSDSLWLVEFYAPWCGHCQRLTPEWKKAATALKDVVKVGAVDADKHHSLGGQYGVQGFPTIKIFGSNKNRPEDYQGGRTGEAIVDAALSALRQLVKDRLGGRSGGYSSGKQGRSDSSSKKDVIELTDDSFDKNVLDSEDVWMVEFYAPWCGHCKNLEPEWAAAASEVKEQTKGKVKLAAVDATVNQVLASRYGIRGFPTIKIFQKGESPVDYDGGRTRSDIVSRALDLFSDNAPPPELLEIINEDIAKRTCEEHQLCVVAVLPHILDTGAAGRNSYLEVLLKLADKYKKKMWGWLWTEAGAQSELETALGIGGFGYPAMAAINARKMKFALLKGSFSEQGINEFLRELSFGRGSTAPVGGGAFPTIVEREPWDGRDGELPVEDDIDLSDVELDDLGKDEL
Description: MICA tetramer binding to NKG2D-negative tumor cells (flow cytometry). Particulars: U266, Hela, HCT116, Lovo and A375 cells, competition with unglycosylated protein.

On to `O=C(O)c1cc(SSc2ccc([N+](=O)[O-])c(C(=O)O)c2)ccc1[N+](=O)[O-]` [DTNB, 5,5-dithiobis-(2-nitrobenzoic acid), reference compound], for which the “surface expression of MICA” value in [1] is reported as “without affecting surface expression of MICA”. Besides, the “shedding of sMICA” value in assay [2] (Hela and A375 cells, 24 h exposure, ELISA, dose-dependent) is listed as “reduce shedding of sMICA”.
On to “ERp5: recombinant ERp5 (residues 1-421 of the mature protein) produced in bacteria”, for which the “reduction of MICA disulfide bond” value with MICA [3] is “gradual reduction of MICA”. Further, the “activity on MICA α1α2 domain” value with MICA [4] was “no activity”. Moreover, the “reduction of unrelated proteins” value in assay [5] is reported as “did not affect”.

B1: C36S: C36S mutant of ERp5 fragment 1-118 (protein)
chain: LYSSSDDVIELTPSNFNREVIQSDSLWLVEFYAPWSGHCQRLTPEWKKAATALKDVVKVGAVDADKHHSLGGQYGVQGFPTIKIFGSNKNRPEDYQGGRTGEAIVDAALSALRQLVKD
modifications: left off: small tags and cut ends
On to B1, for which the “reduction of MICA disulfide bond” value with MICA [3] is “no activity”.

B2: ERp51-118: recombinant N-terminal thioredoxin-like domain fragment of ERp5, residues 1-118 (protein)
chain: LYSSSDDVIELTPSNFNREVIQSDSLWLVEFYAPWCGHCQRLTPEWKKAATALKDVVKVGAVDADKHHSLGGQYGVQGFPTIKIFGSNKNRPEDYQGGRTGEAIVDAALSALRQLVKD
modifications: left off: small tags and cut ends
With B2, the “reduction of MICA disulfide bond” value in the assay with MICA [3] is on record as “partially reduced”.

B3: C39S: C39S mutant of ERp5 fragment 1-118 (protein)
chain: LYSSSDDVIELTPSNFNREVIQSDSLWLVEFYAPWCGHSQRLTPEWKKAATALKDVVKVGAVDADKHHSLGGQYGVQGFPTIKIFGSNKNRPEDYQGGRTGEAIVDAALSALRQLVKD
modifications: left off: small tags and cut ends
In the case of B3, in the assay with MICA [3], the “reduction of MICA disulfide bond” value was “formed a trapped disulfide-linked intermediate”. The “activity on MICA α3 domain” value with MICA [6] is given as “reduces the MICA α3 disulfide bond”.

B4: dRNase: Denatured and reduced RNase A, excess substrate shifting ERp5 equilibrium towards the reduced state (protein, UniProt P61823 27-150, looked up)
Ribonuclease pancreatic: KETAAAKFERQHMDSSTSAASSSNYCNQMMKSRNLTKDRCKPVNTFVHESLADVQAVCSQKNVACKNGQTNCYQSYSTMSITDCRETGSSKYPNCAYKTTQANKHIIVACEGNPYVPVHFDASV
modifications: denatured and reduced
notes: Denatured and reduced RNase A, excess substrate shifting ERp5 equilibrium towards the reduced state
B4: the “ERp5 co-immunoprecipitating with MICA, emergence of sMICA” value with ERp5-MICA complexes is “larger amounts of ERp5 co-immunoprecipitating with MICA”. Moreover, in assay [2] (Hela and A375 cell cultures treated with dRNase, 16 h), the sMICA shedding result was “promotes sMICA shedding”.

B5: native RNase: native RNase A used as control for dRNase (protein, UniProt P61823 27-150, looked up)
Ribonuclease pancreatic: KETAAAKFERQHMDSSTSAASSSNYCNQMMKSRNLTKDRCKPVNTFVHESLADVQAVCSQKNVACKNGQTNCYQSYSTMSITDCRETGSSKYPNCAYKTTQANKHIIVACEGNPYVPVHFDASV
For the molecule B5, the “ERp5 co-immunoprecipitating with MICA, emergence of sMICA” value in the assay on ERp5-MICA complexes is given as “None of those biochemical changes were observed”.

B6: soluble MICA: soluble form of MHC class I-related chain A, NKG2D ligand binding ERp5 (protein)
chain: EPHSLRYNLTVLSWDGSVQSGFLTEVHLDGQPFLRCDRQKCRAKPQGQWAEDVLGNKTWDRETRDLTGNGKDLRMTLAHIKDQKEGLHSLQEIRVCEIHEDNSTRSSQHFYYDGELFLSQNLETKEWTMPQSSRAQTLAMNVRNFLKEDAMKTKTHYHAMHADCLQELRRYLKSGVVLRRTVPPMVNVTRSEASEGNITVTCRASGFYPWNITLSWRQDGVSLSHDTQQWGDVLPDGNGTYQTWVATRICQGEEQRFTCYMEHSGNHSTHPVPSGK
Consider B6, for which the “amounts of IL-1β, IL-17, G-CSF and MCP1” value was “increased amounts” in assay [7] (NKG2D-CD4+ T cells) and “vastly increased” in assay [7] (activated NKG2D+CD4+ T cells). Besides, the “expression of DC maturation markers (CD83; CD80)” value in assay [8] is recorded as “diminished”. In addition, in assay [9], the “ability of mDC to present alloantigen and stimulate T cells” value was “reduced ability to present alloantigen and stimulate T cells”.

B7: rMICA: Non-glycosylated recombinant MICA expressed in bacteria (protein)
chain: EPHSLRYNLTVLSWDGSVQSGFLTEVHLDGQPFLRCDRQKCRAKPQGQWAEDVLGNKTWDRETRDLTGNGKDLRMTLAHIKDQKEGLHSLQEIRVCEIHEDNSTRSSQHFYYDGELFLSQNLETKEWTMPQSSRAQTLAMNVRNFLKEDAMKTKTHYHAMHADCLQELRRYLKSGVVLRRTVPPMVNVTRSEASEGNITVTCRASGFYPWNITLSWRQDGVSLSHDTQQWGDVLPDGNGTYQTWVATRICQGEEQRFTCYMEHSGNHSTHPVPSGK
Consider B7, for which, in the assay with ERp5, the “MICA tetramer binding to NKG2D- tumor cells” value was “inhibited”.
